System: T1, Nc1ncnc2c1ncn2[C@@H]1O[C@H](COP(=O)(O)OP(=O)(O)OP(=O)(O)O)[C@@H](O)[C@H]1O
T1 construct: entire endogenous HER2, ligand-free HER2 complexes immunoprecipitated from SKBR3 cells
Assay: Michaelis-Menten titration of ATP, single-molecule pTyr1196 immunolabeling (KM)
Type: biochemical, Homo sapiens
Conditions: Mg2+

## HER2 (Homo sapiens)
  Km: 16.46 µM

— publication PMC7176432, “Single-molecule functional anatomy of endogenous HER2-HER3 heterodimers” (eLife, 2020)
